Data: patent US20250352661A1 (MYTHIC THERAPEUTICS, published 2025)

T1: LRRC15 on the surface of LRRC15+ cells (SAOS-2, U87MG) (UniProt Q8TF66 22-581, limits assumed)
T1 sequence (looked up): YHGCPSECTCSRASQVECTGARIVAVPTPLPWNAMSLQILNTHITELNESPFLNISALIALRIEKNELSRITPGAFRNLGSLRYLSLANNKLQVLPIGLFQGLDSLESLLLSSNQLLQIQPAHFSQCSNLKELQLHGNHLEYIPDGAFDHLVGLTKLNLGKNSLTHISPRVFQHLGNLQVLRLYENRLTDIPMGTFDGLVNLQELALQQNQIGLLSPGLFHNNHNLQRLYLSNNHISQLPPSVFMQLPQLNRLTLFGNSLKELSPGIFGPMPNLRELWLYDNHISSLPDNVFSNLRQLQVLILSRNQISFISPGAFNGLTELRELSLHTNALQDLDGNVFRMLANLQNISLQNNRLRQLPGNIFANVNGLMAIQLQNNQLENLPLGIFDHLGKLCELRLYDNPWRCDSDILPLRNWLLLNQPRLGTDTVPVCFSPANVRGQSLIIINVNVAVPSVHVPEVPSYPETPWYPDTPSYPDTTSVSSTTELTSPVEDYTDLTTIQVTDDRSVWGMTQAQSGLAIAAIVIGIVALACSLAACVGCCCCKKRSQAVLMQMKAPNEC

T2: LRRC15 on LRRC15 positive cell lines SAOS2 and G292 (UniProt Q8TF66 22-581, limits assumed)
T2 construct: whole, on cells
T2 sequence (looked up): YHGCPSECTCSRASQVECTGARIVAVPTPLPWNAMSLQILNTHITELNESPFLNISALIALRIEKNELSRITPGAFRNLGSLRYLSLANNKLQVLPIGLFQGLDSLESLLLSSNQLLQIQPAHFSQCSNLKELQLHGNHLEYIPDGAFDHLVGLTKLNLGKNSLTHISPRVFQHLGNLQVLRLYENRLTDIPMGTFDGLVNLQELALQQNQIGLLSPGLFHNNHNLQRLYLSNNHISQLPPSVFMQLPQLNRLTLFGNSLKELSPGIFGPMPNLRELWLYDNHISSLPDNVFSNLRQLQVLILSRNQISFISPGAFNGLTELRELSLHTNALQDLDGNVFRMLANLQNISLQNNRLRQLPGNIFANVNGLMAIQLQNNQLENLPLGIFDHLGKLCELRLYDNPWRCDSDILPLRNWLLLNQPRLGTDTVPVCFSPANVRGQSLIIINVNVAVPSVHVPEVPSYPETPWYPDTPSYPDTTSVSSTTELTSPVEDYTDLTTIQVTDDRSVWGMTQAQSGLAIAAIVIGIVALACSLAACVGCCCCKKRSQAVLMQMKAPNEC


How the values were obtained:
[1] = biological target: T1, LRRC15 on the surface of LRRC15+ cells …; assay: cell-based or functional assay
[2] = biological target: T2, LRRC15 on LRRC15 positive cell lines …; assay: cell binding on SAOS2 cells (LRRC15 positive), pH 7.4; set-up: unit not given here
[3] = biological target: T2, LRRC15 on LRRC15 positive cell lines …; assay: cell binding on G292 cells (LRRC15 positive), pH 7.4; set-up: unit not given here

Affinity [2]	Affinity [3]	Binder	20 nM Efficacy (cytotoxicity of candidates against SAOS-2 cells) [1]
–	–	MYT3315-c-ADC (antibody, human IgG1, kappa, V domains shown, vcMMAE conjugated to the cysteine at position 205 of the light chain) VH: EVQLVESGGGLVQPGGSLRLSCAVSGFSLTSYGVHWVRQATGKGLEWLGVIWAGGSTNYNSALMSRLTISKENAKSSVYLQMNSLRAGDTAMYYCATHMITEDYYGMDYWGQGTTVTVSS VL: DIVMTQSPDSLAVSLGERATINCKSSQSLLNSRTRKNYLAWYQQKPGQSPKLLIYWASTRHSGVPDRFSGSGSGTDFTLTISSLQAEDVAVYYCKQSYNLPTFGGGTKVEIKR	22
–	–	MYT2737-c-ADC (antibody, human IgG1, kappa, V domains shown, vcMMAE conjugated to the cysteine at position 205 of the light chain) VH: EVQLVQSGAEVKKPGASVKVSCKASGYKFSSYWIEWVKQAPGQGLEWIGEILPGSDTTNYNEKFKDRATFTSDTSINTAYMELSRLRSDDTAVYYCARDRGNYRAWFGYWGQGTLVTVSS VL: DIQMTQSPSSLSASVGDRVTITCRASQDISNYLNWYQQKPGGAVKFLIYHTSRLHSGVPSRFSGSGSGTDYTLTISSLQPEDFATYFCQQGEALPWTFGGGTKVEIKR	20.2
–	–	MYT8391-c-ADC (antibody, human IgG1, kappa, V domains shown, vcMMAE conjugated to the cysteine at position 205 of the light chain) VH: EVQLVESGGGLVQPGGSLRLSCTASGLDFRRTNYICWVRQAPGKGLEWVGCIYIADVVHYYASWAKGRFTFSRDTSKNTVYLQMNSLRAEDTAVYYCARGADGGFHYGMDLWGQGTLVTVSS VL: EIVMTQSPSTLSASVGDRVIITCQASQSIGNYLSWYQQKPGKAPKRLIYSASTLPSGVPSRFSGSGSGAEFTLTISSLQPDDFATYYCQNNYWLAGYGHPFGQGTKLTVLR	63.8
–	–	MYT8417-c-ADC (antibody, human IgG1, kappa, V domains shown, vcMMAE conjugated to the cysteine at position 205 of the light chain) VH: EVQLVESGGGLVQPGGSLRLSCTASGLDFRRTNYICWVRQAPGKGLEWVGCIYIADVVHYYASWAKGRFTFSRDTSKNTVYLQMNSLRAEDTAVYYCARGADGGFVYGMDLWGQGTLVTVSS VL: EIVMTQSPSTLSASVGDRVIITCQASQSIGNYLSWYQQKPGKAPKRLIYSASTLPSGVPSRFSGSGSGAEFTLTISSLQPDDFATYYCQNNYWLAHYGHPFGQGTKLTVLR	42.5
–	–	MYT8415-c-ADC (antibody, human IgG1, kappa, V domains shown, vcMMAE conjugated to the cysteine at position 205 of the light chain) VH: EVQLVESGGGLVQPGGSLRLSCTASGLDFRRTNYICWVRQAPGKGLEWVGCIYIADVVHYYASWAKGRFTFSRDTSKNTVYLQMNSLRAEDTAVYYCARGADGGFVYGMDLWGQGTLVTVSS VL: EIVMTQSPSTLSASVGDRVIITCQASQSIGNYLSWYQQKPGKAPKRLIYSASTLPSGVPSRFSGSGSGAEFTLTISSLQPDDFATYYCQNNHWLAGYGHPFGQGTKLTVLR	38.7
0.554	0.76	MYT8417 (antibody, V domains shown, Humanized 15G7 variant (LC descriptor G112H); also called hu 15G7 LC his variant) VH: EVQLVESGGGLVQPGGSLRLSCTASGLDFRRTNYICWVRQAPGKGLEWVGCIYIADVVHYYASWAKGRFTFSRDTSKNTVYLQMNSLRAEDTAVYYCARGADGGFVYGMDLWGQGTLVTVSS VL: EIVMTQSPSTLSASVGDRVIITCQASQSIGNYLSWYQQKPGKAPKRLIYSASTLPSGVPSRFSGSGSGAEFTLTISSLQPDDFATYYCQNNYWLAHYGHPFGQGTKLTVL	–
1.65	2.07	MYT8483 (antibody, IgG1, V domains shown, Humanized 24D9; also called hu24D9; Parental) VH: EVQLVESGGGLVQPGGSLRLSCTASGFSFSGSYWICWVRQAPGKGLEWVGCINGGSLDITYYASWAKGRFTISRDTSKNTVYLQKTSLRAEDTAVYYCASDTSYTAYGNFYFNLWGQGTLVTVSS VL: EIVMTQSPSPLSASVGDRVIITCQSSQSVLNNNWLAWYQQKPGKAPKLLIYDASSLASGVPSRFSGSGSGAEFTLTISSLQPDDFATYYCQGEFSCGSADCNAFGQGTKLTVL	–
1.22	2.21	MYT8500 (antibody, V domains shown, also called hu 24D9 HC Hydrophobicity Variant; hu24D9 HC Dev) VH: EVQLVESGGGLVQPGGSLRLSCTASGFSFSGSYWICWVRQAPGKGLEWVGCINGGSHDITYYASWAKGRFTISRDTSKNTVYLQKTSLRAEDTAVYYCASDTSYTAYGNFYFNLWGQGTLVTVSS VL: EIVMTQSPSPLSASVGDRVIITCQSSQSVLNNNWLAWYQQKPGKAPKLLIYDASSLASGVPSRFSGSGSGAEFTLTISSLQPDDFATYYCQGEFSCGSADCNAFGQGTKLTVL	–
